The chains are these.
T1: Human VEGFR-3 extracellular domain (amino acids 25-329), AviTag, hexahistidine tag, biotinylated (human, UniProt P35916 25-329, biotinylated with BirA ligase (AviTag))
T1 chain (part 1 of 2): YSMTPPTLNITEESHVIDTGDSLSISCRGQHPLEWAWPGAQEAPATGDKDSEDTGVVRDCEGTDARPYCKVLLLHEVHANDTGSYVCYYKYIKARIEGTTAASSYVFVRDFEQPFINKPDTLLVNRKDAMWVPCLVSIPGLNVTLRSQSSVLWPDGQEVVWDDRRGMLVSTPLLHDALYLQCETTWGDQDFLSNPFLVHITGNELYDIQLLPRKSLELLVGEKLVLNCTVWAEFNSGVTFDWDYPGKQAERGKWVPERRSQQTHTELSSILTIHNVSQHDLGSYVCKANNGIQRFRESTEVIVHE
T1 chain (part 2 of 2): HHHHHH

B1: Clone 15 (protein)
chain: NTEILKSIDNEWRKTQCMPREVAIDVGKEFGVATNTFFKPPCVSVYRCGGCCISEGLQCMNTSTSYLSKTLFEITVPISQGPKPVTISFANHTSCRCMSKL
B2: WT VEGFC (protein)
chain: NTEILKSIDNEWRKTQCMPREVCIDVGKEFGVATNTFFKPPCVSVYRCGGCCNSEGLQCMNTSTSYLSKTLFEITVPLSQGPKPVTISFANHTSCRCMSKL
B3: Clone 31 (protein)
chain: NTEILKSIDNEWRKTQCMPREVAIDVGKEFGVATNTFFKPPCVSVYRCGGCCHSEGLQCMNTSTSYLSKTLFEITVPLSQGPKPVTISFANHTSCRCMSKL
B4: Clone 7 (protein)
chain: NTEILKSIDNEWRKTQCMPREVAIDVGKEFGVATNTFFKPPCVSVYRCGGCCQSEGLQCMNTSTSYLSKTLFEITVPLSQGPKPVTISFANHTSCRCMSKL
B5: Clone 10 (protein)
chain: NTEILKSIDNEWRKTQCMPREVAIDVGKEFGVATNTFFKPPCVSVYRCGGCCQGEGLQCMNTSTSYLSKTLFEITVPISQGPKPVTISFANHTSCRCMSKL
B6: Clone 21 (protein)
chain: NTEILKSIDNEWRKTQCMPREVAIDVGKEFGVATNTFFKPPCVSVYRCGGCCNGEGLQCMNTSTSYLSKTLFEITVPISQGPKPVTISFANHTSCRCMSKL
B7: Clone 13 (protein)
chain: NTEILKSIDNEWRKTQCMPREVAIDVGKEFGVATNTFFKPPCVSVYRCGGCCISEGLQCMNTSTSYLSKTLFEITVPLSQGPKPVTISFANHTSCRCMSKL
B8: Clone 14 (protein)
chain: NTEILKSIDNEWRKTQCMPREVAIDVGKEFGVATNTFFKPPCVSVYRCGGCCIGEGLQCMNTSTSYLSKTLFEITVPLSQGPKPVTISFANHTSCRCMSKL
B9: Clone 19 (protein)
chain: NTEILKSIDNEWRKTQCMPREVAIDVGKEFGVATNTFFKPPCVSVYRCGGCCNGEGLQCMNTSTSYLSKTLFEITVPLSQGPKPVTISFANHTSCRCMSKL
B10: Clone 39 (protein)
chain: NTEILKSIDNEWRKTQCMPREVAIDVGKEFGVATNTFFKPPCVSVYRCGGCCIREGLQCMNTSTSYLSKTLFEITVPLSQGPKPVTISFANHTSCRCMSKL
B11: Clone 8 (protein)
chain: NTEILKSIDNEWRKTQCMPREVAIDVGKEFGVATNTFFKPPCVSVYRCGGCCQGEGLQCMNTSTSYLSKTLFEITVPLSQGPKPVTISFANHTSCRCMSKL
B12: Clone 9 (protein)
chain: NTEILKSIDNEWRKTQCMPREVAIDVGKEFGVATNTFFKPPCVSVYRCGGCCQSEGLQCMNTSTSYLSKTLFEITVPISQGPKPVTISFANHTSCRCMSKL
B13: Clone 16 (protein)
chain: NTEILKSIDNEWRKTQCMPREVAIDVGKEFGVATNTFFKPPCVSVYRCGGCCIGEGLQCMNTSTSYLSKTLFEITVPISQGPKPVTISFANHTSCRCMSKL
B14: WT (ligand)
chain: NTEILKSIDNEWRKTQCMPREVCIDVGKEFGAATNTFFKPPCVSVYRCGGCCNSEGLQCMNTSTGYLSKTLFEITVPLSQGPKPVTISFANHTSCRCMSKL

These results are taken from US20250188139A1 (published 2025).

One experiment addresses T1, Human VEGFR-3 extracellular domain …. Description: yeast display flow cytometry binding. For orientation: Flow cytometry measures light scatter and fluorescence of single cells or particles in a stream.
For B1, the EC50 (commonly the concentration at which the effect is half-maximal) was found to be 21.5 nM. Same read-out and setting: next, B2: 34.8 nM. The molecule B3 came in with an EC50 of 94.5 nM. Molecule B4 displayed an EC50 of 71 nM. Regarding B5, the concentration for a half-maximal effect (EC50) came to 65.5 nM. On the same count and under the same terms, then B6, with 44.8 nM. On the same count and under the same terms, then B7, with 32.3 nM. On the same count and under the same terms, next, B8: 74.5 nM.

With B9, the EC50 came to 51.3 nM. This EC50 and that of the molecule before are within 1.5-fold of each other.

As for B10, the concentration giving a half-maximal response (EC50) came to 104 nM.

Turning to B11, a half-maximal response (EC50) required 124 nM. Same read-out and setting: then B12, with 65.7 nM; and B13, with 36.8 nM.

In the next experiment the target is VEGFR2. Description: SPR. (In general: In SPR one partner is held on a chip, and binding of the other changes the refractive index at the surface.)
As for B14, binding was put at a Kd of 0.227 nM. That is a sub-nanomolar value.

A further experiment has as its target VEGFR3. Description: SPR.
Regarding B14, binding was put at a Kd of 0.0107 nM. This counts as picomolar.
